# Laboratory results published in patent US20110086767A1, “MUTANTS OF GLYCOSIDE HYDROLASES AND USES THEREOF FOR SYNTHESIZING COMPLEX OLIGOSACCHARIDES AND DISACCHARIDE INTERMEDIATES” (Institut Pasteur, priority 2008, published 2011).
# Residue numbers refer to the chain shown, from its start. In names and notes the source's numbering stands. Like-named read-outs stand apart in the source and are kept apart here.
# B1: wtAS: Wild type glycoside hydrolase: amylosucrase 1G5A from Neisseria polysaccharea, SEQ ID NO: 13 (protein, listed as Neisseria polysaccharea)
# chain: SPNSQYLKTRILDIYTPEQRAGIEKSEDWRQFSRRMDTHFPKLMNELDSVYGNNEALLPMLEMLLAQAWQSYSQRNSSLKDIDIARENNPDWILSNKQVGGVCYVDLFAGDLKGLKDKIPYFQELGLTYLHLMPLFKCPEGKSDGGYAVSSYRDVNPALGTIGDLREVIAALHEAGISAVVDFIFNHTSNEHEWAQRCAAGDPLFDNFYYIFPDRRMPDQYDRTLREIFPDQHPGGFSQLEDGRWVWTTFNSFQWDLNYSNPWVFRAMAGEMLFLANLGVDILRMDAVAFIWKQMGTSCENLPQAHALIRAFNAVMRIAAPAVFFKSEAIVHPDQVVQYIGQDECQIGYNPLQMALLWNTLATREVNLLHQALTYRHNLPEHTAWVNYVRSHDDIGWTFADEDAAYLGISGYDHRQFLNRFFVNRFDGSFARGVPFQYNPSTGDCRVSGTAAALVGLAQDDPHAVDRIKLLYSIALSTGGLPLIYLGDEVGTLNDDDWSQDSNKSDDSRWAHRPRYNEALYAQRNDPSTAAGQIYQDLRHMIAVRQSNPRFDGGRLVTFNTNNKHIIGYIRNNALLAFGNFSEYPQTVTAHTLQAMPFKAHDLIGGKTVSLNQDLTLQPYQVMWLEIA
# B2: A289P-F290I: double mutant A289P, F290I of N. polysaccharea amylosucrase (protein)
# chain: B1 chain with A289P, F290I
# B3: I228P-F290C: double mutant I228P, F290C of N. polysaccharea amylosucrase (protein)
# chain: B1 chain with I228P, F290C
# B4: F290D: single mutant F290D of N. polysaccharea amylosucrase 1G5A (protein)
# chain: B1 chain with F290D
# B5: I228V-F290R: double mutant I228V, F290R of N. polysaccharea amylosucrase (protein)
# chain: B1 chain with I228V, F290R
# B6: A289P-F290L: double mutant A289P, F290L of N. polysaccharea amylosucrase (protein)
# chain: B1 chain with A289P, F290L
# B7: A289P-F290C: double mutant A289P, F290C of N. polysaccharea amylosucrase (protein)
# chain: B1 chain with A289P, F290C
# B8: F290I: single mutant F290I of N. polysaccharea amylosucrase (protein)
# chain: B1 chain with F290I
# Tests used:
# [1] = system: Neisseria polysaccharea amylosucrase 1G5A (parent SEQ ID NO: 13) variants A289P-F290C, A289P-F290I and A289P-F290L; assay: Kinetic parameters towards α-D-GlcpNAc-OAll acceptor, the three double mutants stated together; assay type: biochemical; settings: sucrose 250 mM
# Method: The double mutants A289P-F290C, A289P-F290I and A289P-F290L were produced and purified, as previously described in Example 1-1. The protein content was determined by the Nanodrop ND-1000 spectrophotometer. These mutants were tested on sucrose alone or supplemented with α-D-GlcpNAc-OAll acceptor, and compared to wtAS and F290K. Assays were performed at 30° C. in 50 mM Tris-HCl buffer, pH=7.0.
# (§1) Enzyme assays were carried out in a total volume of 2 mL containing pure enzyme (0.037 mg, 0.076 mg and 0.046 mg when using A289P-F290C, A289P-F2901 and A289P-F290L, respectively).
# (§2) The kcat/Km (α-D-GlcpNAc-OAll) value was calculated from the initial rate of formation of desired disaccharide (α-D-Glcp-(1→4)-α-D-GlcpNAc-OAll), corresponding to the initial rate of α-D-GlcpNAc-OAll consumed. As saturation was not achieved with the mutants, efficiency was calculated by linear regression analysis of the velocity versus substrate concentration plot.
# [2] = HPLC screening of the single-mutant amylosucrase library for glucosylation of D-GlcpNAc; assay type: biochemical
# Method: The protocol was established to enable the rapid identification of clones for which D-GlcpNAc glucosylation was improved. To obtain higher amounts of enzymes and facilitate detection of glucosylated compounds upon HPLC screening, mutants were produced in 96-DeepWell Format plates. Storage microplates containing monomutants were thawed and replicated to inoculate a starter culture in 96-well microplates containing, in each well, 150 μL LB medium supplemented with ampicillin (100 μg/mL). After growth for 24 h at 30° C. under agitation (200 rpm), plates were duplicated into 96-Deep Well plates containing, in each well, 1.1 mL LB medium supplemented with ampicillin (100 μg/mL) and IPTG (1 mM) to induce GST-AS expression. Cultures were then grown for 24 h at 30° C. under agitation (200 rpm). Plates were centrifuged (20 min, 3000 g, 4° C.) and the supernatant was removed. The cell pellet was resuspended in 200 μL of lysozyme (0.5 mg/mL), followed by freezing at −80° C. for 8 to 12 h. After thawing at room temperature, 100 μL of sucrose and 100 μL of acceptor (each at a final concentration of 73 mM) were added to each well. Enzymatic reaction was incubated at 30° C. during 24 h under agitation. The DeepWell plates were then centrifuged (20 min, 3000 g, 4° C.) and 300 μL of the supernatant was transferred to a filter micro-plate (PVDF 0.2 μm) to be clarified. […]
# Efficiency of the glucosylation reaction was evaluated by HPLC analysis of the acceptor reaction product synthesized when using D-GlcpNAc as acceptor using a Dionex P 680 series pump, a Shodex RI 101 series refractometer, a Dionex UVD 340 UV/Vis detector and an autosampler HTC PAL. […]
# For each of the 7 selected positions, 19 single mutants were generated (corresponding to each possible amino acid change). […] Both sucrose consumption and disaccharide formation were determined in order to calculate the glucosylation rate defined as the molar ratio of monoglucosylated acceptor versus/sucrose consumed.
# [3] = HPLC screening of double-mutant libraries for variants able to glucosylate D-GlcpNAc; assay type: biochemical; settings: α-D-Glcp-(1→4)-α-D-GlcpNAc (ED) from sucrose and D-GlcpNAc, microplate format
# Method: The protocol was established to enable the rapid identification of clones for which D-GlcpNAc glucosylation was improved. To obtain higher amounts of enzymes and facilitate detection of glucosylated compounds upon HPLC screening, mutants were produced in 96-DeepWell Format plates. Storage microplates containing monomutants were thawed and replicated to inoculate a starter culture in 96-well microplates containing, in each well, 150 μL LB medium supplemented with ampicillin (100 μg/mL). After growth for 24 h at 30° C. under agitation (200 rpm), plates were duplicated into 96-Deep Well plates containing, in each well, 1.1 mL LB medium supplemented with ampicillin (100 μg/mL) and IPTG (1 mM) to induce GST-AS expression. Cultures were then grown for 24 h at 30° C. under agitation (200 rpm). Plates were centrifuged (20 min, 3000 g, 4° C.) and the supernatant was removed. The cell pellet was resuspended in 200 μL of lysozyme (0.5 mg/mL), followed by freezing at −80° C. for 8 to 12 h. After thawing at room temperature, 100 μL of sucrose and 100 μL of acceptor (each at a final concentration of 73 mM) were added to each well. Enzymatic reaction was incubated at 30° C. during 24 h under agitation. The DeepWell plates were then centrifuged (20 min, 3000 g, 4° C.) and 300 μL of the supernatant was transferred to a filter micro-plate (PVDF 0.2 μm) to be clarified. Supernatant filtration was carried out by centrifugation of the filter micro-plate (5 min, 2000 g, 4° C.) into a novel microplate for screening.
# The method for the expression of the mutant libraries is described in Example 1-1.
# Acceptor reaction products were analyzed by HPLC analysis using a C18-AQ column (Bischoff C18, 125×4 mm, 3 μm) kept at room temperature and eluted with 0.6 mL/min of ultra-pure water to detect α-D-Glcp-(1→4)-α-D-GlcpNAc formation (analysis time: 7 min). To evaluate the efficiency of the glucosylation reaction, it was carried out complementary HPLC analyses with a Biorad HPX-87K Carbohydrate Analysis column (maintained at 65° C., and eluted at a flow rate of 0.6 mL/min with ultra-pure water). By this way, it was possible to measure sucrose consumption by RI detection and concomitant α-D-Glcp-(1-4)-α-D-GlcpNAc formation by UV220 nm and determine mutant ability to synthesize the desired disaccharide α-D-Glcp-(1→4)-α-D-GlcpNAc (i.e., % Glucosyl units transferred onto acceptor derivatives=[Glucosyl units transferred onto acceptor derivatives]/[Glucosyl units transferred from initial sucrose]×100)
# All clones producing sucrose-utilizing variants were then picked and cultured in 96-well microplates. Following cell lysis, the acceptor reaction in the presence of D-GlcpNAc was then carried out in microplate format. HLPC analysis time for each clone was reduced to 7 min for detection of α-D-Glcp-(1→4)-α-D-GlcpNAc. When disaccharide formation was detected, complementary analyses were performed to determine sucrose consumption and disaccharide formation with more accuracy in order to calculate the glucosylation yield.
# [4] = Kinetic parameters towards α-D-GlcpNAc-OAll acceptor; assay type: biochemical; settings: 250 mM for both sucrose and α-D-GlcpNAc-OAll
# Method: as §1, §2
# [5] = data from ref. 83, cited from earlier work
# [6] = Kinetic parameters towards sucrose donor; assay type: biochemical; settings: for V250mM (initial rate of sucrose consumption): 250 mM sucrose; for behaviour (at high concentration): sucrose donor alone
# Method: Enzyme assays were carried out in a total volume of 2 mL containing pure enzyme (0.073 mg, 0.153 mg and 0.092 mg when using A289P-F290C, A289P-F2901 and A289P-F290L, respectively).
# Kinetic studies of AS variants were performed in the presence of sucrose (0-500 mM). At regular time intervals (2-5 min), aliquots (200 μL) were removed, heated (95° C., 2 min) and centrifuged (18000 g, 5 min) All the samples were filtered on a 0.22 μm membrane and analyzed using HPLC material previously described. The initial rate of sucrose consumed, corresponding to the initial rate of fructose released, was expressed in mole of fructose released per minute and per gram of enzyme. The kinetic parameters kcat and Km were calculated using Eadie-Hofstee plot.
# [7] = Glucosylation of α-D-GlcpNAc-OAll by purified F290D, F290K and ASNPwt (146 mM sucrose + 146 mM acceptor); assay type: biochemical; settings: purified enzyme; Sucrose=Acceptor=146 mM; compared with ASNPwt
# Method: All assays were performed at 30° C. in 50 mM Tris buffer, pH=7.0. For the acceptor reactions, F290D, F290K and ASNPwt (1G5A) were tested on α-D-GlcpNAc-OAll.
# Comparison of products synthesized by wild-type and AS variants. Reactions were performed in the presence of 146 mM sucrose alone or supplemented with 146 mM acceptor. The purified wild-type or mutated GST/AS were employed at 0.5 U/mL. The reactions were stopped by heating at 95° C. for 5 min. The final mixture was centrifuged at 18 000 g for 10 min, filtered on 0.22 μm membrane and analyzed by HPLC, as previously described.
# Soluble and insoluble oligosaccharides produced during the reaction were identified by HPAEC using a Dionex Carbo-Pack PA100 column at 30° C. Before analysis, the insoluble fraction was solubilized in KOH at a final total sugar concentration of 10 g/kg. Mobile phase (150 mM NaOH) was set at 1 mL/min flow rate with a sodium acetate gradient (going from 6 to 500 mM within 120 min). Detection was performed using a Dionex ED40 module with a gold working electrode and an Ag/AgCl pH reference. Note that α-D-GlcpNAc-OAll (acceptor) and its derivatives are not oxidable products and thus are not detectable by HPAEC. Sucrose, glucose, fructose, α-D-GlcpNAc-OAll (acceptor) and its derivatives (glucosylation products) were quantified by HPLC, as previously described
Molecule,Glusosylation Yield to synthesize ED [3] [%],V250mM (initial rate of acceptor consumption) [4],V250mM (initial rate of sucrose consumption) [6] [µmol/min/g],behaviour (at high concentration) [6],further results
"C=CCO[C@H]1O[C@H](CO)[C@@H](O)[C@H](O)[C@H]1NC(C)=O [α-D-GlcpNAc-OAll, allyl 2-acetamido-2-deoxy-α-D-glucopyranoside]",,,,,increase of catalytic efficiency towards α-D-GlcpNAc-OAll compared to variant F290K ([1]; three double mutants vs F290K): 3 fold; increase of catalytic efficiency towards α-D-GlcpNAc-OAll compared to wtAS ([1]; three double mutants vs wtAS): ≤ 395 fold
B1,2,290 µmol/min/g,,,"glucosylation rate (formation of α-D-Glcp-(1→4)-D-GlcpNAc) ([2]; molar ratio of monoglucosylated acceptor versus sucrose consumed, sucrose and D-GlcpNAc 73 mM each, 30° C., 24 h, microtiter format): 2%; V250mM (initial rate of sucrose consumption) ([5]; 250 mM sucrose): 900 µmol/min/g; behaviour (at high concentration) ([5]; sucrose donor): saturation"
B2,100,51 400 μmol/min/g,946,saturation,
B3,22,,,,
B4,,,,,increase of glucosylation rate compared to the wild type ([2]; acceptor D-GlcpNAc): 45 fold; times more efficient for α-D-GlcpNAc-OAll glucosylation [7]: 10 times; times more efficient to form α-D-Glcp-(1→4)-D-GlcpNAc-OAll [7]: 20 times
B5,25,,,,
B6,100,67 300 μmol/min/g,1717,saturation,
B7,100,50 000 μmol/min/g,2186,saturation,
B8,16,,,,
